Tests used:
Experiment in all cases: IEDB peptide-MHC binding, purified MHC/competitive/radioactivity; filed as Kd, often an IC50 or EC50 that approximates it; ≥ and ≤ were set here for values at or beyond the usual limits of such assays
[1] = molecular target: HLA-A*11:01
[2] = molecular target: HLA-A*03:01
[3] = molecular target: HLA-A*31:01
[4] = molecular target: HLA-A*68:01
[5] = molecular target: HLA-A*33:01
[6] = molecular target: HLA-A*02:03; details: source organism: Dengue virus 3 Martinique/1243/1999
[7] = molecular target: HLA-A*02:06; details: source organism: Dengue virus 1 Singapore/S275/1990
[8] = source organism: Lymphocytic choriomeningitis virus (strain WE)
[9] = source organism: Mammarenavirus machupoense
[10] = source organism: Vaccinia virus WR
[11] = source organism: SARS coronavirus Tor2
[12] = source organism: Lassa virus Josiah
[13] = source organism: Mammarenavirus lassaense

Sequence | Kd [1, 10] | Kd [2, 10] | Kd [3, 10] | Kd [4, 10] | Kd [5, 10] | other results
SRILFAQEK |  |  |  |  |  | Kd [1, 8]: 773 nM; Kd [2, 8]: 15700 nM; Kd [3, 8]: ≥ 38700 nM; Kd [4, 8]: 7330 nM; Kd [5, 8]: ≥ 77700 nM
SSFDYCGMDH |  |  |  |  |  | Kd [1, 9]: 6580 nM; Kd [2, 9]: 13800 nM; Kd [3, 9]: 10600 nM; Kd [4, 9]: 3400 nM; Kd [5, 9]: ≥ 48900 nM
SSKGNCAIK | 2150 nM | 6770 nM | 2150 nM | 3480 nM | 17700 nM | 
SSNKDPITVY | 1880 nM | ≥ 70100 nM | ≥ 50900 nM | ≥ 42800 nM | ≥ 70000 nM | 
SSPPIPMSR | 406 nM | 7270 nM | 10400 nM | 764 nM | 15500 nM | 
SSSIDVDKR | 4750 nM | ≥ 78000 nM | 8950 nM | 146 nM | ≥ 35000 nM | 
STCSAVTDR | 31.2 nM | ≥ 31000 nM | 119 nM | 55.1 nM | 1390 nM | 
STDNAVYQCR | 35.4 nM | 5720 nM | 427 nM | 81.3 nM | 2890 nM | 
STSLSEEFFH |  |  |  |  |  | Kd [1, 9]: 4310 nM; Kd [2, 9]: ≥ 43100 nM; Kd [3, 9]: 14700 nM; Kd [4, 9]: 13200 nM; Kd [5, 9]: ≥ 64800 nM
SVLCVKKFYK | 0.302 nM | 1.14 nM | 0.785 nM | 1.01 nM | 12.2 nM | 
SVNEYHMLK | 2.23 nM | 6.1 nM | 6.92 nM | 2.24 nM | 85.7 nM | 
SVYAWERKK |  |  |  |  |  | Kd [1, 11]: 230 nM; Kd [2, 11]: 134 nM; Kd [3, 11]: 1940 nM; Kd [4, 11]: 5320 nM; Kd [5, 11]: ≥ 38700 nM
TFKIDAVRYY | 12100 nM | ≥ 70100 nM | ≥ 20700 nM | 1430 nM | ≥ 43400 nM | 
THLGPQFCK |  |  |  |  |  | Kd [1, 12]: 284 nM; Kd [2, 12]: 880 nM; Kd [3, 12]: 15900 nM; Kd [4, 12]: 338 nM; Kd [5, 12]: ≥ 77700 nM
TISKDNLER | 170 nM | 2620 nM | 175 nM | 18.1 nM | 490 nM | 
TLGSFTWFPH |  |  |  |  |  | Kd [1, 13]: 4990 nM; Kd [2, 13]: 428 nM; Kd [3, 13]: 782 nM; Kd [4, 13]: ≥ 25700 nM; Kd [5, 13]: 13400 nM
TLIMIGSNA |  |  |  |  |  | Kd [6]: 32 nM

Sequence | Kd [1, 10] | Kd [2, 10] | Kd [3, 10] | Kd [4, 10] | Kd [5, 10] | other results
TMLDVDLRPA |  |  |  |  |  | Kd [7]: 16.9 nM
TVWEVQGYK |  |  |  |  |  | Kd [1, 11]: 0.757 nM; Kd [2, 11]: 2.91 nM; Kd [3, 11]: 47.7 nM; Kd [4, 11]: 0.913 nM; Kd [5, 11]: 129 nM
VAALDGTFQR | 681 nM | ≥ 34100 nM | 124 nM | 40.1 nM | 675 nM | 
VFTDISMSLY | 2290 nM | 8240 nM | 11600 nM | 2300 nM | 6760 nM | 
VIGLSGDSER | 15900 nM | ≥ 63700 nM | 8890 nM | 182 nM | 1180 nM | 
VSLKKTNDK | 32.1 nM | 193 nM | 8770 nM | 19400 nM | ≥ 54800 nM | 
VSLLRSTSQK |  |  |  |  |  | Kd [1, 11]: 172 nM; Kd [2, 11]: 11.6 nM; Kd [3, 11]: 175 nM; Kd [4, 11]: 6330 nM; Kd [5, 11]: 2540 nM
VSMTYLYNKY | 96.5 nM | 15400 nM | ≥ 28900 nM | ≥ 70200 nM | ≥ 70000 nM | 
VTLADAGFMK |  |  |  |  |  | Kd [1, 11]: 3.92 nM; Kd [2, 11]: 33 nM; Kd [3, 11]: 1200 nM; Kd [4, 11]: 135 nM; Kd [5, 11]: 11700 nM
VVDTFISYNR | 343 nM | 2540 nM | 25.2 nM | 80.5 nM | 101 nM | 
WIQYDKHCY | 39.5 nM | 5820 nM | 5660 nM | 2980 nM | ≥ 60400 nM | 
WVSLKKTNDK | 608 nM | 2090 nM | ≥ 32700 nM | ≥ 45500 nM | ≥ 70000 nM | 
YCSTNHLSK |  |  |  |  |  | Kd [1, 9]: 14900 nM; Kd [2, 9]: 19200 nM; Kd [3, 9]: ≥ 77900 nM; Kd [4, 9]: ≥ 23100 nM; Kd [5, 9]: ≥ 77700 nM
YITIQDRPR | ≥ 44800 nM | ≥ 78000 nM | 138 nM | 26.2 nM | 187 nM | 
YIVHSYLKNY | ≥ 69800 nM | ≥ 70100 nM | ≥ 70000 nM | ≥ 70200 nM | ≥ 70000 nM | 
YLIHDNIMY | 14900 nM | 10600 nM | ≥ 77900 nM | ≥ 26900 nM | ≥ 77700 nM | 
